Tests used:
[1] = target: FUS^WT released from GST-TEV-FUS by TEV protease (UniProt P35637)
[2] = target: FUS^WT released from GST-TEV-FUS by TEV protease (UniProt P35637); remark: listed apart in the source
[3] = target: FUS released from 6xHis-MBP-FUS by TEV protease (UniProt P35637)

Substance: Kapβ2 H1-H13 (residues 1–604) (from UniProt Q92973-2 1-604) (domain or fragment)
- reduction of turbidity of preformed FUS fibrils after 80 min at the highest concentration of H1-H13 tested [1]: 50%
- FUS fibrillization left (normalised turbidity at 395 nm; 3 μM FUS, TEV protease) at the highest concentration of H1-H13 tested [2]: 40%
- reduction of number and total area of preformed FUS:RNA droplets (1 μM FUS, 1 μM U40 RNA; 0.75 μM H1-H13, 2 h) [3]: 44%

Substance: Karyopherin-β2 (Kapβ2), full-length, wild type (from UniProt Q92973-2 1-890) (natural protein)
- reduction of number and total area of preformed FUS:RNA droplets (1 μM FUS, 1 μM U40 RNA; 0.75 μM Kapβ2, 2 h) [3]: 100%
